Measurements taken from paper doi:10.1101/2022.12.29.522231 (bioRxiv, 2022).

Tests used:
[1] = target: catalytic domain of MMP-3 (WT), activated (UniProt P08254 100-272); test: enzyme inhibition assay
[2] = target: catalytic domain of MMP-14 residues 110-300 (human, UniProt P50281 110-300); test: enzyme inhibition assay

catalytic domain of MMP-3 (WT), activated, sequence (P08254 100-272): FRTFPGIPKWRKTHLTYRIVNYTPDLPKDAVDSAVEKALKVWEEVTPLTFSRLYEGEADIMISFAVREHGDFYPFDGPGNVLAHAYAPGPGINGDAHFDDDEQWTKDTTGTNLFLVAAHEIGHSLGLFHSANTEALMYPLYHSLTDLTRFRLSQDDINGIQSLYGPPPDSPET

B1: WT N-TIMP2 (N-terminal domain of tissue inhibitor of metalloproteinases-2), purified (domain or fragment, human, UniProt P16035 27-153, looked up)
chain: CSCSPVHPQQAFCNADVVIRAKAVSEKEVDSGNDIYGNPIKRIQYEIKQIKMFKGPEKDIEFIYTAPSSAVCGVSLDVGGKKEYLIAGKAEGDGKMHITLCDFIVPWDTLSTTQKKSLNHRYQMGCE
Ki [1]: 5.9 ± 0.7 nM | Ki [2]: 0.53 ± 0.1 nM
